Test results from PMC9352680, “A comprehensive thermodynamic model for RNA binding by the Saccharomyces cerevisiae Pumilio protein PUF4”.

T1: PUF4 RNA-binding domain (Saccharomyces cerevisiae, UniProt P25339 537-888)
T1 sequence: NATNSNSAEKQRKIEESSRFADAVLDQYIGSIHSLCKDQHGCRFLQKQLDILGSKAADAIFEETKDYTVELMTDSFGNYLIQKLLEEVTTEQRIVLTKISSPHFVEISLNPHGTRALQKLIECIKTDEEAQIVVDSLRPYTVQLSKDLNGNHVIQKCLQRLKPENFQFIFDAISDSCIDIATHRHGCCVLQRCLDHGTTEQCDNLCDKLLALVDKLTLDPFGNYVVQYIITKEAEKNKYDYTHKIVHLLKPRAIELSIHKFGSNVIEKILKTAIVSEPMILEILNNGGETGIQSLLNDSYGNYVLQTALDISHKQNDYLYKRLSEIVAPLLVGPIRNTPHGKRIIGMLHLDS


Molecular target: T1, PUF4 RNA-binding domain
Experiment: Mg; RNA-MaP; 20 mM Na-HEPES pH 7.4, 30 mM KOAc, 0.75 mM MgCl2, 0.1% Tween-20, 5% glycerol, 0.1 mg/mL BSA, 2 mM DTT; 25 C; 0.0125-409.6 nM protein
Details: tags: N-His6-TEV cleaved; C-SNAP kept, Cy3B-labelled; label: tethered on chip by stalled RNA polymerase

Row | Binder | Kd [nM]
1 | UCUCUUUUUAUGUAUCUCUU (ssRNA) [Ib_S1_P3E.1_K3.1_C3.1_H3.1_[G2T]_A3.1_[A6G]_F3.1_T3.1] | 354
2 | UCUCUUUUUAUUUAUCUCUU (ssRNA) [Ib_S1_P3E.1_K3.1_C3.1_H3.1_[G2T]_A3.1_[A6T]_F3.1_T3.1] | > 2300
3 | UCUCUUUAUAUGUAUCUCUU (ssRNA) [Ib_S1_P3E.1_K3.1_C3.1_H3.1_[G2A]_A3.1_[A6G]_F3.1_T3.1] | 384
4 | Ic_S2_P4E.1_K4.1_C4.1_H4.1_A4.1_[T5G]_[A6C]_[T7G]_F4.1_[T8G]_[A9T]_T4.1 (ssRNA) RNA: UUUGAUUAAUAUGAUAUCGUUCUUUCUUGUAGCGGUUUCUUUCUCGAUAUCAUAUUAAUCUUU | 808
5 | Ic_S2_P4E.1_K4.1_C4.1_H4.1_A4.1_[T5G]_[A6C]_[T7G]_F4.1_[T8C]_[A9C]_T4.1 (ssRNA) RNA: UUUGAUUAAUAUGAUAUCGUUCUUUCUUGUAGCGCCUUCUUUCUCGAUAUCAUAUUAAUCUUU | 750
6 | Ic_S2_P4E.1_K4.1_C4.1_H4.1_A4.1_[T5G]_[A6C]_[T7G]_F4.1_[T8C]_[A9G]_T4.1 (ssRNA) RNA: UUUGAUUAAUAUGAUAUCGUUCUUUCUUGUAGCGCGUUCUUUCUCGAUAUCAUAUUAAUCUUU | > 2300
7 | Ic_S2_P4E.1_K4.1_C4.1_H4.1_A4.1_[T5G]_[A6C]_[T7G]_F4.1_[A9C]_T4.1 (ssRNA) RNA: UUUGAUUAAUAUGAUAUCGUUCUUUCUUGUAGCGUCUUCUUUCUCGAUAUCAUAUUAAUCUUU | 782
8 | UCUCUUUUUAUCUAUCUCUU (ssRNA) [Ib_S1_P3E.1_K3.1_C3.1_H3.1_[G2T]_A3.1_[A6C]_F3.1_T3.1] | > 2300
9 | Ic_S2_P3E.1_K3.1_C3.1_H3.1_A3.1_[T5C]_[A6T]_F3.1_[A8G]_T3.1 (ssRNA) RNA: UUUGAUUAAUAUGAUAUCGUUCUUUCUUGUACUUGUUCUUUCUCGAUAUCAUAUUAAUCUUU | 107
10 | Ic_S2_P3E.1_K3.1_C3.1_H3.1_A3.1_[T5C]_[A6T]_F3.1_[A8C]_T3.1 (ssRNA) RNA: UUUGAUUAAUAUGAUAUCGUUCUUUCUUGUACUUCUUCUUUCUCGAUAUCAUAUUAAUCUUU | 36.4
11 | Ic_S2_P3E.1_K3.1_C3.1_H3.1_A3.1_[T5C]_F3.1_[T7C]_[A8T]_T3.1 (ssRNA) RNA: UUUGAUUAAUAUGAUAUCGUUCUUUCUUGUACACUUUCUUUCUCGAUAUCAUAUUAAUCUUU | 2.64
12 | Ic_S2_P3E.1_K3.1_C3.1_H3.1_A3.1_[A6C]_F3.1_[T7A]_[A8T]_T3.1 (ssRNA) RNA: UUUGAUUAAUAUGAUAUCGUUCUUUCUUGUAUCAUUUCUUUCUCGAUAUCAUAUUAAUCUUU | 4.83
13 | Ic_S2_P3E.1_K3.1_C3.1_H3.1_A3.1_F3.1_T3.1 (ssRNA) RNA: UUUGAUUAAUAUGAUAUCGUUCUUUCUUGUAUAUAUUCUUUCUCGAUAUCAUAUUAAUCUUU | 1.38
14 | Ic_S2_P3E.1_K3.1_C3.1_H3.1_A3.1_[T5A]_[A6T]_F3.1_[T7C]_[A8T]_T3.1 (ssRNA) RNA: UUUGAUUAAUAUGAUAUCGUUCUUUCUUGUAAUCUUUCUUUCUCGAUAUCAUAUUAAUCUUU | 22.5
15 | Ic_S2_P3E.1_K3.1_C3.1_H3.1_A3.1_[T5A]_F3.1_[T7A]_[A8C]_T3.1 (ssRNA) RNA: UUUGAUUAAUAUGAUAUCGUUCUUUCUUGUAAAACUUCUUUCUCGAUAUCAUAUUAAUCUUU | 621
16 | Ic_S2_P3E.1_K3.1_C3.1_H3.1_A3.1_[T5A]_[A6T]_F3.1_[A8T]_T3.1 (ssRNA) RNA: UUUGAUUAAUAUGAUAUCGUUCUUUCUUGUAAUUUUUCUUUCUCGAUAUCAUAUUAAUCUUU | 19.2
17 | Ic_S2_P3E.1_K3.1_C3.1_H3.1_A3.1_[T5A]_[A6C]_F3.1_[T7A]_[A8T]_T3.1 (ssRNA) RNA: UUUGAUUAAUAUGAUAUCGUUCUUUCUUGUAACAUUUCUUUCUCGAUAUCAUAUUAAUCUUU | 8.69
18 | Ic_S2_P3E.1_K3.1_C3.1_H3.1_A3.1_[A6C]_F3.1_[T7C]_[A8C]_T3.1 (ssRNA) RNA: UUUGAUUAAUAUGAUAUCGUUCUUUCUUGUAUCCCUUCUUUCUCGAUAUCAUAUUAAUCUUU | 132
19 | Ic_S2_P3E.1_K3.1_C3.1_H3.1_A3.1_[T5A]_[A6C]_F3.1_[A8G]_T3.1 (ssRNA) RNA: UUUGAUUAAUAUGAUAUCGUUCUUUCUUGUAACUGUUCUUUCUCGAUAUCAUAUUAAUCUUU | 101
20 | Ic_S2_P3E.1_K3.1_C3.1_H3.1_A3.1_[A6T]_F3.1_[T7C]_[A8G]_T3.1 (ssRNA) RNA: UUUGAUUAAUAUGAUAUCGUUCUUUCUUGUAUUCGUUCUUUCUCGAUAUCAUAUUAAUCUUU | 234
21 | Ic_S2_P3E.1_K3.1_C3.1_H3.1_A3.1_[A6T]_F3.1_[T7C]_[A8C]_T3.1 (ssRNA) RNA: UUUGAUUAAUAUGAUAUCGUUCUUUCUUGUAUUCCUUCUUUCUCGAUAUCAUAUUAAUCUUU | 76
22 | Ic_S2_P3E.1_K3.1_C3.1_H3.1_A3.1_[T5A]_F3.1_[T7C]_[A8T]_T3.1 (ssRNA) RNA: UUUGAUUAAUAUGAUAUCGUUCUUUCUUGUAAACUUUCUUUCUCGAUAUCAUAUUAAUCUUU | 19.9
23 | Ic_S2_P3E.1_K3.1_C3.1_H3.1_A3.1_[T5A]_[A6C]_F3.1_[T7C]_[A8G]_T3.1 (ssRNA) RNA: UUUGAUUAAUAUGAUAUCGUUCUUUCUUGUAACCGUUCUUUCUCGAUAUCAUAUUAAUCUUU | 626
